Tests used:
SsnA (NMV_0044) [1] = target: T1, SsnA (NMV_0044) (Neisseria meningitidis 8013 2C4.3, UniProt Q9K1N6 Q9K1N6:1-94); test: cleavage_in_vitro; conditions: 10 mM MgCl2, 37 C optimum; abolished by EDTA
T1 sequence: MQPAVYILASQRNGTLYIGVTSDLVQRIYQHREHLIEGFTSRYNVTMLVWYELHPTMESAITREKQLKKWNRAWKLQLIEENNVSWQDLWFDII

SsnA (NMV_0044) [2] = target: T1, SsnA (NMV_0044); test: EMSA; conditions: no Mg, 50 mM NaCl, 10 mM Tris pH 7.9, 37 C; 0.5 uM protein, 0.8 uM DNA
SsnA (NMV_0044) [3] = target: T1, SsnA (NMV_0044); test: EMSA; binding preserved, cleavage reduced to varying extents; conditions: tags: N-terminal 6xHis; label: 5'-carboxyfluorescein; hairpin
Description: (§1) Electrophoretic mobility shift assay (EMSA). Gel shift assays, or EMSA, were performed by diluting the proteins in Diluent A (NEB) to the indicated working concentrations. 5′carboxyfluorescin-tagged oligos corresponding to genomic regions of N. meningitidis MC58 were synthesized from Sigma. When needed, complementary oligonucleotides were annealed by mixing equimolar amounts in annealing buffer (10 mM Tris-HCl PH8, 50 mM NaCl, 1 mM EDTA), incubating them 5 minutes at 95° C. and letting them slowly cool down. For the gel-shift assays, proteins were mixed with the fluorescent oligonucleotides in a reaction buffer containing 50 mM NaCl, 10 mM Tris-HCl, 100 μg/ml BSA, pH7.9. The mixes were incubated at 37° C. for 30 minutes before adding native loading dye. Samples were resolved on native 10% TBE-acrylamide gels and imaged with a Typhoon FLA9500 scanner. For branched DNA binding assays, a similar approach was used but the gel was stained with GelStain (Biotium) and imaged on a GelDoc (BioRad) since the oligonucleotides were not fluorescently labelled.

SsnA (NMV_0044) [4] = target: T1, SsnA (NMV_0044); test: EMSA; unable to interact with RNA; conditions: tags: N-terminal 6xHis
Description: as §1

SsnA (NMV_0044) [5] = target: T1, SsnA (NMV_0044); test: EMSA; no Mg, 37 C; also not cleaved; conditions: tags: N-terminal 6xHis; label: 5'-carboxyfluorescein
Description: Gel-shift (top, EMSA) and endonuclease (bottom) assays of 0.5 μM SsnA with 0.8 µM of DNA. Magnesium was omitted from the EMSA reaction mix to allow DNA binding by SsnA without nuclease activity. ssDNArev is the reverse complement of ssDNA. dsDNA is the double-stranded annealed product from ssDNA with ssDNArev. The arrow represents the recognition pattern (NTS repeat) of SsnA. Unless otherwise indicated (last well), assayed proteins were his-tagged.
as §1, with “For branched DNA binding assays, a similar approach was used but the gel was stained with GelStain (Biotium) and imaged on a GelDoc (BioRad) since the oligonucleotides were not fluorescently labelled.” left out

ssDNA (100 nt, NTS)
activity (SsnA (NMV_0044) [1]): 100 % cleaved
binding (SsnA (NMV_0044) [2]): 100 % bound

B1: NTS#5 (ssDNA)
DNA: GTCATTCCCACGAACCTACATTCCGTCATTCCCACGAAAGTGGGAATCCAGTGCGTTGAGTTTCAGTCATTTCCAATAAATTGCCTTAGTATTGAATGTC
binding result (SsnA (NMV_0044) [3]): binds

AAAAAUAUUCCGUCAUUCCCGCGAAAGCGGGAAUCUA (ssRNA) [RNA37]
binding result (SsnA (NMV_0044) [4]): no binding

B2: ssDNArev (ssDNA)
DNA: CCAGGTCTGTCGGTGCGGAAACTTATCGGATAAAACGGTTTCTTTAGATTTTACGTTCTAGATTCCCGCTTTCGCGGGAATGACGGAATATTTTTGAATT
modifications: [none]
binding result (SsnA (NMV_0044) [5]): no binding

B3: dsDNA (100 bp, NTS) (dsDNA)
DNA 1: AATTCAAAAATATTCCGTCATTCCCGCGAAAGCGGGAATCTAGAACGTAAAATCTAAAGAAACCGTTTTATCCGATAAGTTTCCGCACCGACAGACCTGG
DNA 2: CCAGGTCTGTCGGTGCGGAAACTTATCGGATAAAACGGTTTCTTTAGATTTTACGTTCTAGATTCCCGCTTTCGCGGGAATGACGGAATATTTTTGAATT
binding result (SsnA (NMV_0044) [5]): no binding

B4: NTS#3 (ssDNA)
DNA: ATCCCGTCATTCCCGCCACTTTCCGTCATTCCCGCGAAAGCGGGAATCTAGAATCTCGGACTTTCAGATAATCTTTGAATATTGCTGTTGTTCTAAGGTC
binding result (SsnA (NMV_0044) [3]): binds

B5: NTS#1 (ssDNA)
DNA: GAGGTTTCGGGCAACTTCTAAACCGTCATTCCCGCGCAGGCGGGAATCCAGACCATTGGACAGCAGCAATATTCAAAGATTATCTGAAAGTCCGGGATTC
binding result (SsnA (NMV_0044) [3]): binds

B6: NTS#4 (ssDNA)
DNA: TAAATGACCCCAACTTAAAATCCCGTCATTCCCGCGCAGGCGGGAATCTAGGTCTGTCGGTGCGGAAACTTATCGGGTAAAACGGTTTCTTGAGATTTTG
binding result (SsnA (NMV_0044) [3]): binds

B7: NTS#2 (ssDNA)
DNA: GTCATTCCCACGAACCTACATTCCGTCATTCCCACGAAAGTGGGAATCTAGAATCTCTAAAGCTTCAGCTAACCTTTGAATATTGCTGTTGTTCTAAGGT
binding result (SsnA (NMV_0044) [3]): binds
